The nature of this series: label from the status in PepcDB records.

The source of these data is a protein production outcome set (Wang et al. 2014).

On to “AANPDIMYRLLIQSVVDYAIYLLTPEGIVANWNPGAQRAKGYRAEEIVGQHYSLFYTDAERAAGLPAFNLEQARSTGRFEETGARLRKDGTAFHAHVVIEAVYDDAGQLVGFAKVTRDISERHRQELELLQAKELAEQYSQEMAKLSQFLDSVIANIP”, for which the protein production entry is listed as “failed”.
In the case of “AAVLTQDKNTPTYGPANGKVTVIEFFDYQCVYCSRLAPVMEQVIKAHPQTRFAFKEWPIFGGRWESSLEAAKTGLQIYQQKGADAYLAYHNGIYATGHNEGKLTTADIQQQAKKAGFDAKKAADVEPVLQSINDLAQEIGLSGTPGVIVMPTTGATEASITVFPGLADKASLEAAIKKAGG”, the protein production result is “failed”.
Regarding “ADAQLIGHTNPSGEITFGEETFTIAQALDTLERDYREVYPLNVTTADVEALPDFATALPKADTDSEEANASAGDKAVHVLLPVFPGTNSEYDMAEAFEAAGATTEFHIIRNLNSEMLAADTEAFITKLQSANILAFSGGFSLGDEPDGSAKFMAAFLRSDTVAAAIKDFVARDGLVLGICNGFQALVKSGFLPYGDPAKMSAESPTLAHNRQLRHVSRIATTRVSSVASPWLSTFTPGQQHLMPVSHGEGRFVVSEKEAQALFSAGQVAFQYVDAEGTPTMEAPANPNGSNYAIEGIISPDGRILGKMGHPERFRDGLMRNIPGMEIQDIFANAVNYCRKSQR”, the protein production result was “failed”.
With “ADEEESTPCDNVETDQQTFACAAFNKQVAERELQSAYDELIERMRDQFGDEAGLMSRIEAAEKVWSQLRDADCKVETHAEQPGSNAYQIAWNSCIAQRSDERAEYLRSLGSQNSDEPAPED”, the protein production entry is “not failed”.
The entry for “ADVSSSDLATLRRLTNEFQAELATLGTRVDDLEARTSELENQQFSTTTKLNGEAIFSISGATGGEPEGNDAQITFNNRLRLNLTTSFTGKDALITGLQAYNFSAGKSITGTGNVAETLFPNDASILGDSMTNLAWEPQFAGLNPQNLQPSCGNNSLCLYKLLYVRPITDKLTAFIGPKAEVTDAFPAILPFASEGQGALSRFATLNPVLRMSGGTSGTGLASAAGFIYKPNDVIDWRALYGSVNAAIPGNEGFPGTPLGAGLFNGSFIAATQLTLHPNDKLDLGLNYAYSYHQINIAGTGLTGAETRILGDLPLTTPVRFNSFGATVNWRVSPKVNLTGYGAYIMTDQANSGSAYTNLSSWMAGLYFPDAFAKGNAAGILFGQPLYRVDAGNGASLSPANIGDRQTPYQLEAFYRHQINDHISITPGAFVIFNPEGDAQNETTSVFALRTTYTF” is “failed”; for “AEEKVKDEAMQIMGMFQILPRLVVFDLDYTLWPFYCECRSKREMPSMYPQAKGILSALKEKGIEMAIASRSPTSDIANTFLDKLNIKPMFVAKVSKMGVTSILVGDGVTLGAFRQGLTEFTQNHNSIEKNKQVWRDKYSG” it is “failed”.
The entry for “AEGRGKARADSLKAGSQGLSANKRRADGSFESVVASSLRKGDVVRVQAGEMIPGDGEVIEGVAAVNEAAITGESAPVIRESGGDRSAVTGNTQVVSDWLLVRIGANPGESTLDRMIALVEGAKRQKTPNEV” is “failed”; for “AEGTRGRSSTARCSLFGSDFVNTFDGSMYSFAGYCSYLLAGGCQKRSFSIIGDFQNGKRVSLSVYLGEFFDIHLFVNGTVTQGDQRVSMPYASKGLYLETEAGYYKLSGEAYGFVARIDGSGNFQVLLSDRYFNKTCGLCGNFNIFAEDDFMTQEGTLTSDPYDFANSWALSSGEQWCERASPPSSSCNISSGEMQKGLWEQCQLLKSTSVFARCHPLVDPEPFVALCEKTLCECAGGLECACPALLEYARTCAQEGMVLYGWTDHSACSPVCPAGMEYRQCVSPCARTCQSLHINEMCQERCVDGCSCPEGQLLDEGLCVESTECPCVHSGKRYPPGTSLSRDCNTCICRNSQWICSNEECPGECLVTGQSHFKSFDNRYFTFSGICQYLLARDCQDHSFSIVIETVQCADDRDAVCTRSVTVRLPGLHNSLVKLKHGAGVAMDGQDIQLPLLKGDLRIQHTVTASVRLSYGEDLQMDWDGRGRLLVKLSPVYAGKTCGLCGNYNGNQGDDFLTPSGLAEPRVEDFGNAWKLHGDCQDLQKQHSDPCALNPRMTRFSEEACAVLTSPTFEACHRAVSPLPYLRNCRYDVCSCSDGRECLCGALASYAAACAGRGVRVAWREPGRCELNCPKGQVYLQCGTPCNLTCRSLSYPDEECNEACLEGCFCPPGLYMDERGDCVPKAQCPCYYDGEIFQPEDIFSDHHTMCYCEDGFMHCTMSGVPGSLLPDAVLSSPLSHRSKR” it is “failed”.
To “AEITEVRIYKSKGNGSVKAYASVSFDNEFVVKGLKVVEGEKGLWVSMPSRRMKDGSFQDVFHPVSREARDKIVDAVLKAYQEQE” belongs “failed”.
